Reference: patent US11986516B2, “Compositions and methods for treatment of SARS-COV-2” (priority 2021, dated 2024)

Tests used:
[1] = Visual solubility assessment of ACE-2 protein in liquid excipients; assay type: physicochemical; conditions: for Visual observation for solubility: 1.6 μg API in 3.0 g
Experimental: The solubility of compounds in liquid excipients was determined using visual solubility protocol. In this method, about 3.0 g of excipients was accurately weighed in individually labelled 20 mL scintillation vials (USP Type-I). To these vials, accurately measured 1 (1.67 μg) aliquots of protein was added and tightly closed. […] The vials were kept at ambient temperature without agitation for 72 hours and visually inspected at 0, 24, and 72 hours.

[2] = system: human nasal epithelial cultures (EpiAirway, NAS-100-beta); assay: Nasal permeation of rhACE-2 (ELISA of receiving medium); assay type: in vitro ADME; conditions: for nasal permeation value (rhACE-2 in receiving medium): 50 μg/ml rhACE-2 in formulation
Excerpt: In order to determine the nasal permeation profile, human nasal epithelial cultures (EpiAirway, NAS-100-beta manufactured by MatTek Corporation) were used.
At the end of each time point, culture medium was completely removed and replaced with fresh medium.

[3] = system: reconstructed human skin model (Epiderm, EPI-200-X); assay: Skin permeation of rhACE-2 (ACE-2 ELISA of receiving medium); assay type: in vitro ADME; conditions: for skin permeation value (rhACE-2 in receiving medium): 50 μg/ml rhACE-2 in formulation
Experimental: In order to determine the skin permeation profile, a reconstructed human skin model (Epiderm, EPI-200-X manufactured by MatTek Corporation) was used. This model includes normal, human-derived epidermal keratinocytes (NHEK) which have been cultured to form a multilayered, highly differentiated model of the human epidermis. The NHEK cells are cultured on specially-prepared cell culture inserts using serum free medium and attain levels of differentiation. The EpiDerm Skin Model closely parallels human skin, thus providing a useful in vitro means to assess dermal irritancy and toxicology.
After an acclimation period, the skin cultures were treated in triplicates PBS (negative control/baseline), vehicle formulation (“Placebo”), and formulation containing 50 μg/ml ACE-2. At the end of each time point culture medium was completely removed and replaced with fresh medium. The amount of permeated ACE-2 over time was determined by ACE-2 ELISA. Levels of ACE-2 in the receiving medium were determined at the following timepoints: 0 minutes, 5 minutes, 30 minutes, 60 minutes, 180 minutes, 540 minutes, 1260 minutes, and 1440 minutes.

[4] = system: human reconstructed nasal epithelium model (NAS-100-BETA by MatTek); assay: Nasal irritation, MTT tissue viability; assay type: cell-based
Experimental: (§1) The formulations were performed using an increased dosage (e.g., 40-50 μg) compared to the study in Example 3.
(§2) Cultures were maintained and treated topically and at the end of the treatment, tissue viability was determined using the MTT conversion assay as described in Example 3. The Relative Tissue Viability values were determined and used to classify the test articles as irritant or non-irritants according to the assay criteria. As a secondary output, levels of the proinflammatory mediator IL-1α were determined as described in Example 3.

IL-1α [5] = assay: Nasal irritation, IL-1α levels; assay type: cell-based, human
Experimental: as §1, §2

[6] = system: hCoV-19/USA-WA1/2020 (WA); assay type: cell-based, SARS-CoV-2; conditions: in µg/mL
[7] = system: hCoV-19/South Africa/KRISP-K005325/2020 (SA); assay type: cell-based, SARS-CoV-2
[8] = system: EpiDerm™ cultures (EPI-200); assay: In Vitro EpiDerm Skin Irritation Test (EPI-200-SIT), MTT tissue viability; assay type: cell-based, human
IL-1α [9] = assay: EpiDerm skin irritation, IL-1α secretion (Quantikine ELISA); assay type: cell-based, human; conditions: EpiDerm cultures, media collected after 24 hours; rhACE-2 2.5-40 μg/ml

## rhACE-2
[1]; in 1X PBS, 24 hr
  Visual observation for solubility: Clear solution
[1]; in 1X PBS, 72 hr
  Visual observation for solubility: Clear solution
[1]; in 1X PBS, Initial Observation
  Visual observation for solubility: Clear solution
[1]; in Glycerin, 24 hr
  Visual observation for solubility: Clear solution
[1]; in Glycerin, 72 hr
  Visual observation for solubility: Clear solution
[1]; in Glycerin, Initial Observation
  Visual observation for solubility: Clear solution
[1]; in Hexylene Glycol, 24 hr
  Visual observation for solubility: Clear solution
[1]; in Hexylene Glycol, 72 hr
  Visual observation for solubility: Clear solution
[1]; in Hexylene Glycol, Initial Observation
  Visual observation for solubility: Clear solution
[1]; in Polyethylene Glycol 400, 24 hr
  Visual observation for solubility: Clear solution
[1]; in Polyethylene Glycol 400, 72 hr
  Visual observation for solubility: Clear solution
[1]; in Polyethylene Glycol 400, Initial Observation
  Visual observation for solubility: Clear solution
[1]; in Polysorbate 20, 24 hr
  Visual observation for solubility: Clear yellow
[1]; in Polysorbate 20, 72 hr
  Visual observation for solubility: Clear yellow
[1]; in Polysorbate 20, Initial Observation
  Visual observation for solubility: Clear yellow
[1]; in Propylene Glycol, 24 hr
  Visual observation for solubility: Clear solution
[1]; in Propylene Glycol, 72 hr
  Visual observation for solubility: Clear solution
[1]; in Propylene Glycol, Initial Observation
  Visual observation for solubility: Clear solution
[1]; in Purified Water, USP, 24 hr
  Visual observation for solubility: Clear solution
[1]; in Purified Water, USP, 72 hr
  Visual observation for solubility: Clear solution
[1]; in Purified Water, USP, Initial Observation
  Visual observation for solubility: Clear solution
[1]; propylene glycol, hexylene glycol, glycerin, polyethylene glycol 400, polysorbate 20, purified water, PBS
  solubility in all the excipients tested: readily soluble
[2]; 5 minutes post application
  nasal permeation value (rhACE-2 in receiving medium): 0.035 ng/ml
[2]; 180 minutes post application
  nasal permeation value (rhACE-2 in receiving medium): 0.06 ng/ml
[2]; 540 minutes post application
  nasal permeation value (rhACE-2 in receiving medium): 0.413 ng/ml
[2]; 1260 minutes post application
  nasal permeation value (rhACE-2 in receiving medium): 1.03 ng/ml
[2]; 1440 minutes post application
  nasal permeation value (rhACE-2 in receiving medium): 0.249 ng/ml
[2]; at 50 μg/ml
  permeation through reconstructed human nasal tissue: minimal to negligible permeation
[3]; 5 minutes post application
  skin permeation value (rhACE-2 in receiving medium): 0.402 ng/ml
[3]; 30 minutes post application
  skin permeation value (rhACE-2 in receiving medium): 0.578 ng/ml
[3]; 60 minutes post application
  skin permeation value (rhACE-2 in receiving medium): 1.28 ng/ml
[3]; 180 minutes post application
  skin permeation value (rhACE-2 in receiving medium): 0.0196 ng/ml
[3]; 540 minutes post application
  skin permeation value (rhACE-2 in receiving medium): 0 ng/ml
[3]; 1260 minutes post application
  skin permeation value (rhACE-2 in receiving medium): 0.98 ng/ml
[3]; 1440 minutes post application
  skin permeation value (rhACE-2 in receiving medium): 0.029 ng/ml
[3]; at 50 μg/ml
  permeation through reconstructed human skin tissue: minimal to negligible permeation
[4]; all tested concentrations, 3.06-50 μg/ml
  classification as nasal irritant: nasal non-irritants
IL-1α [5]; rhACE-2 3.06 μg/ml
  average IL-1α levels: 0 ng/mL
IL-1α [5]; rhACE-2 6.125 μg/ml
  average IL-1α levels: 0 ng/mL

## ACE2
[6]
  EC50: 9.206
[7]
  EC50: 1.18 µg/mL

## CCCCCCCCCCCCOS(=O)(=O)[O-].[Na+] [5% SDS]
[8]
  mean viability of positive control tissues expressed as percentage of the negative control tissues: 4%
[4]; nasal epithelium model
  mean viability of positive control tissues expressed as percentage of the negative control tissues: 2%
IL-1α [9]
  secretion of IL-1α: significant increase in IL-1α secretion
